Like-named read-outs stand apart in the source and are kept apart here.
Experiments:
[1] = target: cynomolgus monkey C-KIT-Fc (cynomolgus monkey); assay: HTRF epitope competition in solution; unlabelled h37M IgG1-3M titrated against terbium-labelled h37M IgG1 on cyno C-KIT-Fc
[2] = target: cynomolgus monkey C-KIT, full length, on CHO-K1 cells (cynomolgus monkey); assay: cell-based or functional assay
[3] = target: human C-KIT, full length, on cells (human) (UniProt P10721); assay: cell-based or functional assay
[4] = target: cynomolgus monkey C-KIT-Fc (cynomolgus monkey); assay: HTRF competition vs Tb-h37M IgG1
[5] = target: cynomolgus monkey C-KIT, full length, on CHO-K1 cells (cynomolgus monkey); assay: flow cytometry, C-KIT-transfected CHO-K1 cells, IgG1 format
[6] = target: cynomolgus monkey C-KIT-Fc (cynomolgus monkey); assay: direct titration ELISA on coated C-KIT-Fc, IgG1 format
[7] = target: cynomolgus monkey C-KIT-Fc (cynomolgus monkey); assay: as above; remark: listed apart in the source
[8] = target: cynomolgus monkey C-KIT-Fc (cynomolgus monkey); assay: HTRF competition vs Tb-h37M IgG1; remark: listed apart in the source
[9] = target: cynomolgus monkey C-KIT-Fc (cynomolgus monkey); assay: direct ELISA at 1 µg/ml

IC50 (read off the curve) [1] | Cyno C-KIT CHO FabZAP IC50 (pM) [2] | Human C-KIT CHO FabZAP IC50 (pM) [3] | TF-1 FabZAP IC50 (pM) [3] | TF-1 proliferation IC50 [3] | IC50 [4] | EC50 (read off the curve) [5] | EC50 (read off the curve) [6] | EC50 (read off the curve) [7] | IC50 [8] | OD450 nm [9] | Binder
0.02 µg/mL | 7.82 pM | 5.7 pM | 12.8 pM | 0.11 nM | – | – | – | – | – | – | h37M-IgG1-3M (antibody, V domains shown) VH: QVQLVQSGAEVKKPGASVKLSCKASGYTFTDYYINWVRQAPGKGLEWIARIYPGSGNTYYNEKFKGRATLTADKSTSTAYMQLSSLRSEDTAVYFCARGVYYFDYWGQGTTVTVSS VL: DIVMTQSPSSLSASVGDRVTITCKASQNVRTNVAWYQQKPGKAPKALIYSASYRYSGVPDRFTGSGSGTDFTLTISSLQPEDFADYFCQQYNSYPRTFGGGTKVEIK
– | – | – | – | – | 0.035 µg/mL | 0.2 µg/mL | 0.2 µg/mL | 0.1 µg/mL | 0.036 µg/mL | > 2 OD450 nm | humanized h37M, human IgG1 (antibody, V domains shown) VH: QVQLVQSGAEVKKPGASVKLSCKASGYTFTDYYINWVRQAPGKGLEWIARIYPGSGNTYYNEKFKGRATLTADKSTSTAYMQLSSLRSEDTAVYFCARGVYYFDYWGQGTTVTVSS VL: DIVMTQSPSSLSASVGDRVTITCKASQNVRTNVAWYQQKPGKAPKALIYSASYRYSGVPDRFTGSGSGTDFTLTISSLQPEDFADYFCQQYNSYPRTFGGGTKVEIK

Source: patent publication US20200283521A1
